Test results: article PMC7935965, “RNF8 ubiquitinates RecQL4 and promotes its dissociation from DNA double strand breaks” (Oncogenesis, 2021)

T1: recombinant Flag-RecQL4 (human, UniProt O94761 1-1208)
T1 construct: also called purified Flag-RecQL4; source: E. coli (BL21 in the results; Rosetta (DE3) in the methods), IPTG-induced, purified
T1 sequence (looked up): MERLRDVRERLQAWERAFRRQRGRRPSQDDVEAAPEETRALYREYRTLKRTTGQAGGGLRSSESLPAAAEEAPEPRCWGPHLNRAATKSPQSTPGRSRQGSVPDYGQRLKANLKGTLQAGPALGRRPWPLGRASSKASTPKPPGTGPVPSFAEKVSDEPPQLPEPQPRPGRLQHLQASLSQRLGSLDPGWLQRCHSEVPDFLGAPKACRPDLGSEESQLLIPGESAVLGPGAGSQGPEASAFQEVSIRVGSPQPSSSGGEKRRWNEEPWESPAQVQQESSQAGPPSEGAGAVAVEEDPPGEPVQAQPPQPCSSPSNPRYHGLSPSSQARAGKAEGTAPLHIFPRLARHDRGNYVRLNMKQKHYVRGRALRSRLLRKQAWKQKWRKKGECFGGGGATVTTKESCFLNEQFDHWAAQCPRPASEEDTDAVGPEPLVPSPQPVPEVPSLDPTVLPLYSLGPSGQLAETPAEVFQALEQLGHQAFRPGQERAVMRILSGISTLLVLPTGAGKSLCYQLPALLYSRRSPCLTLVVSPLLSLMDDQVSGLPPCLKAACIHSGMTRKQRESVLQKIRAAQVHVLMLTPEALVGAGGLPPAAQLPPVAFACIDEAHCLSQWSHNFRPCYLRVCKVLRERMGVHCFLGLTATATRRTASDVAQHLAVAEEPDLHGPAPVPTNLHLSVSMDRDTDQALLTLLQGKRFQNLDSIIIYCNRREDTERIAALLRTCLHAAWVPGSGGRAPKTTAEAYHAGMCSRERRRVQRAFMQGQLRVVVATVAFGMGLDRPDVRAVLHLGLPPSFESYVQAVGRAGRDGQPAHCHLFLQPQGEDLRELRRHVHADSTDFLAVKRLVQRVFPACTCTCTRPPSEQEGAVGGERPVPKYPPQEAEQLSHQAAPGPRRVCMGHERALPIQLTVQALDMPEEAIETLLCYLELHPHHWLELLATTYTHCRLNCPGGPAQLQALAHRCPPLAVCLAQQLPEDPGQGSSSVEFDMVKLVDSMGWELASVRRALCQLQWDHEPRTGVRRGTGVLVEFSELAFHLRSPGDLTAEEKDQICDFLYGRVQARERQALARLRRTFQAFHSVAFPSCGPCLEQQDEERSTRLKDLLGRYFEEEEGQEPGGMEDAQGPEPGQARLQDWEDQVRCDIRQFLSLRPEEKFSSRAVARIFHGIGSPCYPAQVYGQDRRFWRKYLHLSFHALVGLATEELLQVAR


Assays:
[1] = target: T1, recombinant Flag-RecQL4; assay: pull-down; Flag-RecQL4 immobilised on M2 beads at 4 °C overnight, GST fusion proteins added at 4 °C for 4 h; GST-RNF8 with increasing input of GST-WRAP53β; western blot; conditions: both partners purified
[2] = target: T1, recombinant Flag-RecQL4; assay: pull-down; GST fusion protein immobilised on glutathione Sepharose 4B at 4 °C overnight, incubated with purified Flag-RecQL4 at 4 °C for 4 h; western blot; conditions: both partners purified

GST-WRAP53β, sequence (Q9BUR4 whole entry, change not shown, the tested form may be a part): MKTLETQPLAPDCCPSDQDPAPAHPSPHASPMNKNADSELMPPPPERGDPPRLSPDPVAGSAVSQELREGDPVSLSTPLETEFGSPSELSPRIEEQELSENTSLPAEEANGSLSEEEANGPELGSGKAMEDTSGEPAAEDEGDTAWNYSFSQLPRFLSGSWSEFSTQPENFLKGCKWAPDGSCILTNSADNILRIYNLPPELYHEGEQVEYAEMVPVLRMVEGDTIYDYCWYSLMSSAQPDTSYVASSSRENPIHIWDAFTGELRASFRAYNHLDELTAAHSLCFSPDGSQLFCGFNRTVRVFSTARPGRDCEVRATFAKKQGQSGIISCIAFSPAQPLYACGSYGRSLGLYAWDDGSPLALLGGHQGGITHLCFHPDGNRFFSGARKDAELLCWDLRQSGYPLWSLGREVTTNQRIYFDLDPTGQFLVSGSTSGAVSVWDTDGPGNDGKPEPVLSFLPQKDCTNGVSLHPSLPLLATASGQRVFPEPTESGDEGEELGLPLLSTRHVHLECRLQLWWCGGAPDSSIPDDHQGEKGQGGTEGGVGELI

| binding result [1] | binding result [2] | Binder |
| --- | --- | --- |
| binds |  | GST-RNF8 (natural protein, UniProt O76064-1 1-485, looked up, RNF8; also called purified recombinant GST-RNF8; source: E. coli BL21, purified (GST beads)) MGEPGFFVTGDRAGGRSWCLRRVGMSAGWLLLEDGCEVTVGRGFGVTYQLVSKICPLMISRNHCVLKQNPEGQWTIMDNKSLNGVWLNRARLEPLRVYSIHQGDYIQLGVPLENKENAEYEYEVTEEDWETIYPCLSPKNDQMIEKNKELRTKRKFSLDELAGPGAEGPSNLKSKINKVSCESGQPVKSQGKGEVASTPSDNLDPKLTALEPSKTTGAPIYPGFPKVTEVHHEQKASNSSASQRSLQMFKVTMSRILRLKIQMQEKHEAVMNVKKQTQKGNSKKVVQMEQELQDLQSQLCAEQAQQQARVEQLEKTFQEEEQHLQGLEIAQGEKDLKQQLAQALQEHWALMEELNRSKKDFEAIIQAKNKELEQTKEEKEKMQAQKEEVLSHMNDVLENELQCIICSEYFIEAVTLNCAHSFCSYCINEWMKRKIECPICRKDIKSKTYSLVLDNCINKMVNNLSSEVKERRIVLIRERKAKRLF |
|  | binds | GST-WRAP53β (natural protein, WRAP53β; also called purified recombinant GST-WRAP53β; source: E. coli, purified (GST beads)) not shown |
